The results in this text go back to article PMC8459920 (Molecular & Cellular Proteomics : MCP, 2021).

In the assay the target is T1, Cullin-5 (Cul5) (UniProt Q93034 1-780).
T1 construct: also called full-length Cul5
T1 sequence: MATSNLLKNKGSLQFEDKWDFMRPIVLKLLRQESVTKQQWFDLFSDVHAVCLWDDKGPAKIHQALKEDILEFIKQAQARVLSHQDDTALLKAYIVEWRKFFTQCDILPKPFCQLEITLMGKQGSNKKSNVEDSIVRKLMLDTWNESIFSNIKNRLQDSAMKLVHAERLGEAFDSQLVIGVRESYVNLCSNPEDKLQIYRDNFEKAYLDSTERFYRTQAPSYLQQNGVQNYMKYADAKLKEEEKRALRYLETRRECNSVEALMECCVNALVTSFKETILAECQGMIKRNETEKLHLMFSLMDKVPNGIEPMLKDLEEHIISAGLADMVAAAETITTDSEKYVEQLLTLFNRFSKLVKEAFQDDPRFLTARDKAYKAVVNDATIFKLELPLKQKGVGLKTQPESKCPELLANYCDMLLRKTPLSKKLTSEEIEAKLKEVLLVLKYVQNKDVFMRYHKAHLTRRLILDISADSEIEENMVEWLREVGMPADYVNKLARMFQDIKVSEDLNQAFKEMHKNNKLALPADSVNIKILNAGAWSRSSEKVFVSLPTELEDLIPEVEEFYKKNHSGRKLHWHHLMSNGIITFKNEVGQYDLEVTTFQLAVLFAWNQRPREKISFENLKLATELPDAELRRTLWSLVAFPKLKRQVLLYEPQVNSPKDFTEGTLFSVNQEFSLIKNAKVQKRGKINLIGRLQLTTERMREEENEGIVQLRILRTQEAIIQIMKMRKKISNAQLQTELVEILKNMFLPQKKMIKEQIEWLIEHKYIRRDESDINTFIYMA
The assay is described as follows: cross-linking; DSSO cross-linking with LC-MS3 (XL-MS) of reconstituted complexes at ~5 uM in 20 mM HEPES pH 7.5, 300 mM NaCl, 10% glycerol; 37 °C, 30 min; cross-linked SDS-PAGE bands digested in gel with trypsin or chymotrypsin; data of the four complexes pooled. The settings on record: both partners purified.

B1: Rbx2 (natural protein)
chain: MADVEDGEETCALASHSGSSGSKSGGDKMFSLKKWNAVAMWSWDVECDTCAICRVQVMDACLRCQAENKQEDCVVVWGECNHSFHNCCMSLWVKQNNRCPLCQQDWVVQRIGK
notes: also called E2 docking protein Rbx2
Consider B1, for which the binding result is given as “binds”.
